Test results taken from IntAct's records for PubMed 15328537.

B1: Emerin (Homo sapiens), P50402 (parent)
chain: MDNYADLSDTELTTLLRRYNIPHGPVVGSTRRLYEKKIFEYETQRRRLSPPSSSAASSYSFSDLNSTRGDADMYDLPKKEDALLYQSKGYNDDYYEESYFTTRTYGEPESAGPSRAVRQSVTSFPDADAFHHQVHDDDLLSSSEEECKDRERPMYGRDSAYQSITHYRPVSASRSSLDLSYYPTSSSTSFMSSSSSSSSWLTRRAIRPENRAPGAGLGQDRQVPLWGQLLLFLVFVIVLFFIYHFMQAEEGNPF

Variants of: B1
Details: with acts_rabit ACTA1, P68135

Row | Variant | effect of a mutation on the interaction
1 | MDNYADLSDTELTTLLRRYNIPHGPVVGSTRRLYEKKIFEYETQRRRLSPPSSSAASSYSFSDLNSTRGDADMYDLPKKEDALLYQSKGYNDDYYEESYFTTRTYGEPESAGPSRAVRQSVTSFPDADAFHHHVHDDDLLSSSEEECKDRERPMYGRDSAYQSITHYRPVSASRSSLDLSYYPTSSSTSFMSSSSSSSSWLTRRAIRPENRAPGAGLGQDRQVPLWGQLLLFLVFVIVLFFIYHFMQAEEGNPF [Q133H] | disrupting interaction
